In PMC8524320:
No end group written: not given here. *: point of attachment. TAMRA = 5-carboxytetramethylrhodamine, CN(C)c1ccc2c(-c3ccc(C(=O)*)cc3C(=O)[O-])c3ccc(N(C)C)cc3[o+]c2c1

Experiments:
[1] = target: HLA-A*68:02^N86Q on the surface of HeLaM-HLA-ABC^KO cells (human); assay: flow cytometry on cells; competition: surface MHC-I pre-loaded with 10 nM fluorescent peptide in the presence of TAPBPR (100 nM for HLA-A*68:02 WT, 10 nM for N86Q and S88R), washed, then 0, 100 nM or 1000 nM recombinant TAPBPR for 30 min; loss of bound peptide against no TAPBPR
[2] = target: HLA-A*68:02^S88R on the surface of HeLaM-HLA-ABC^KO cells (human); assay: as above
[3] = target: HLA-A*68:02^WT on the surface of HeLaM-HLA-ABC^KO cells (human); assay: as above
[4] = target: HLA-A*68:02^N86Q on the surface of HeLaM-HLA-ABC^KO cells (human); assay: flow cytometry on cells; competition: cells treated with 1 μM soluble TAPBPR for 30 min at 37 °C, washed, then 0, 10 nM or 100 nM high-affinity peptide for 15 min (methods: 30 min); loss of bound TAPBPR (PeTe-4) against no peptide
[5] = target: HLA-A*68:02^S88R on the surface of HeLaM-HLA-ABC^KO cells (human); assay: as above
[6] = target: HLA-A*68:02^WT on the surface of HeLaM-HLA-ABC^KO cells (human); assay: as above

**Q.** “recombinant soluble TAPBPR^WT (lumenal domains, C-terminal His6) (from UniProt Q9BX59 19-405) (domain or fragment)” was tested. Which % loss of pre-loaded YVVPFVAK*V in the presence of TAPBPR (up to) [1] did it give?
**A.** 30%

**Q.** What about the % of pre-loaded ETVSK*QSNV dissociated by 100 nM TAPBPR [1] of the same molecule?
**A.** 50%

**Q.** And the % of pre-loaded ETVSK*QSNV dissociated by 1 μM TAPBPR [1]?
**A.** 85%

**Q.** And the % loss of pre-loaded YVVPFVAK*V in the presence of TAPBPR (up to) [2]?
**A.** 50%

**Q.** What about the % of pre-loaded ETVSK*QSNV dissociated by 100 nM TAPBPR [2] of the same molecule?
**A.** 75%

**Q.** What about the % of pre-loaded ETVSK*QSNV dissociated by 1 μM TAPBPR [2] of the same molecule?
**A.** > 90%

**Q.** And the % of pre-loaded ETVSK*QSNV dissociated by 1 μM TAPBPR [3]?
**A.** 30%

**Q.** For YVVPFVAK(TAMRA)V [YVVPFVAK*V (TAMRA-labelled peptide specific for HLA-A*68:02)], which % of bound TAPBPR displaced by the peptide [4] is on record?
**A.** 86%

**Q.** And the % of bound TAPBPR displaced by the peptide [5]?
**A.** 83%

**Q.** What about the % of bound TAPBPR displaced by the peptide [6] of the same molecule?
**A.** 92%

**Q.** How did the % of bound TAPBPR dissociated by the peptide [4] turn out when ETVSK(TAMRA)QSNV [ETVSK*QSNV (TAMRA-labelled peptide specific for HLA-A*68:02)] was run?
**A.** 70%

**Q.** And the % of bound TAPBPR dissociated by the peptide [5]?
**A.** 60%

**Q.** And the % of bound TAPBPR dissociated by the peptide [6]?
**A.** 85%
